Experimental data published in paper PMC10984559.

Target: T1, Mtr4 ΔSLYL (Saccharomyces cerevisiae, UniProt P47047 1-1069, del1070-1073)
T1 sequence: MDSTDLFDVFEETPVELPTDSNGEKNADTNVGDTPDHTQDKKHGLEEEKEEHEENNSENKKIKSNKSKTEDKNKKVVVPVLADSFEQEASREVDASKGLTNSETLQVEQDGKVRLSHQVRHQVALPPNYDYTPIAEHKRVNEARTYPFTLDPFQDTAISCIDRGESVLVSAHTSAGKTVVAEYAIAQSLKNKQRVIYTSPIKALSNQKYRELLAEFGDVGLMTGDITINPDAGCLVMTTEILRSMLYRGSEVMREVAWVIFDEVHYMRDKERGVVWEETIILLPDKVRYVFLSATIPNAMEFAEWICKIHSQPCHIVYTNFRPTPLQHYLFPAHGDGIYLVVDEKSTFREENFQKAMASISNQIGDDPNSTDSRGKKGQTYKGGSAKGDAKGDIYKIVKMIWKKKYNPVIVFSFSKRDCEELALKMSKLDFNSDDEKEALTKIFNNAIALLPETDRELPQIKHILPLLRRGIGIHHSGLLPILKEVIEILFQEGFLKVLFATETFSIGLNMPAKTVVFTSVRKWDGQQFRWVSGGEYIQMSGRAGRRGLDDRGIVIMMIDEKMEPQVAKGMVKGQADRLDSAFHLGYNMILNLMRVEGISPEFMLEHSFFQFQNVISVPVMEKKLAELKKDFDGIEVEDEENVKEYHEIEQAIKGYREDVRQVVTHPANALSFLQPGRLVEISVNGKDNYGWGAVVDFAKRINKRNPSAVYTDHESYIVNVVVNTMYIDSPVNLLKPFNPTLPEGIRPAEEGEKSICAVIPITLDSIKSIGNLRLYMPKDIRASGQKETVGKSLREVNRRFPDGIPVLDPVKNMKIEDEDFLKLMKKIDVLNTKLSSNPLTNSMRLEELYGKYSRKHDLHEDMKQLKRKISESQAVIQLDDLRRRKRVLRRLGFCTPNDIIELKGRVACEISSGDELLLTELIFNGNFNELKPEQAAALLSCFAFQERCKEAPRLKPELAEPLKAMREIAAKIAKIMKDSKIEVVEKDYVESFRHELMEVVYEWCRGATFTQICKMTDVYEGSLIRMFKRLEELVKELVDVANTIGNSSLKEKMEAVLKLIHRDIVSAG
Experiment: EMSA

B1: ds16UA5 (R16/R22A) (dsRNA)
RNA 1: AGCACCGUAAAGACGC
RNA 2: GCGUCUUUACGGUGCUUAAAAA
- binding signal: > 5 fold Kd vs WT
